Patent US20050130265A1

Target: Aiolos (mouse) (UniProt O08900)
Experiment: cell-based or functional assay

Sequence of Aiolos (mouse) (O08900 other isoform, or with tags, fused parts or gaps limits assumed): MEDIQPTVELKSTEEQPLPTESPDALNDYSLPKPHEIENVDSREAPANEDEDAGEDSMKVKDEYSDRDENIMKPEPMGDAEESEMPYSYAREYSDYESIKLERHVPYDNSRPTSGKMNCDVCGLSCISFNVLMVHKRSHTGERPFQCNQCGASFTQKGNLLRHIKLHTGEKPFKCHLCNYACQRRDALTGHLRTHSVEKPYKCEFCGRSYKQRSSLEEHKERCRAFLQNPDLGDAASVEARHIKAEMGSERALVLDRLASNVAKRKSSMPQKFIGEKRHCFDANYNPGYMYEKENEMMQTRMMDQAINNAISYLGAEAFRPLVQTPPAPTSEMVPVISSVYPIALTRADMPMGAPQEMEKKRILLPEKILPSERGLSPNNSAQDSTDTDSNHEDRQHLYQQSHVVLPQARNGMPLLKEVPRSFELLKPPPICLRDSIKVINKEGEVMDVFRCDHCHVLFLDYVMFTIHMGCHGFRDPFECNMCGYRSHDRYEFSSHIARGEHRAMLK

CAT activity from the 4xIK-BS1-tkCAT reporter in transfected NIH-3T3 cells: 65 % reduction
Substance: Ikaros isoform Ik-6 (from UniProt Q03267 1-288)
